Experimental data reported in patent publication US20130129739A1.

Molecular target: human prolactin receptor (PRLR) on cells (human) (UniProt P16471)
Experiment: cell-based or functional assay

human prolactin receptor (PRLR) on cells (human), sequence (P16471 25-622): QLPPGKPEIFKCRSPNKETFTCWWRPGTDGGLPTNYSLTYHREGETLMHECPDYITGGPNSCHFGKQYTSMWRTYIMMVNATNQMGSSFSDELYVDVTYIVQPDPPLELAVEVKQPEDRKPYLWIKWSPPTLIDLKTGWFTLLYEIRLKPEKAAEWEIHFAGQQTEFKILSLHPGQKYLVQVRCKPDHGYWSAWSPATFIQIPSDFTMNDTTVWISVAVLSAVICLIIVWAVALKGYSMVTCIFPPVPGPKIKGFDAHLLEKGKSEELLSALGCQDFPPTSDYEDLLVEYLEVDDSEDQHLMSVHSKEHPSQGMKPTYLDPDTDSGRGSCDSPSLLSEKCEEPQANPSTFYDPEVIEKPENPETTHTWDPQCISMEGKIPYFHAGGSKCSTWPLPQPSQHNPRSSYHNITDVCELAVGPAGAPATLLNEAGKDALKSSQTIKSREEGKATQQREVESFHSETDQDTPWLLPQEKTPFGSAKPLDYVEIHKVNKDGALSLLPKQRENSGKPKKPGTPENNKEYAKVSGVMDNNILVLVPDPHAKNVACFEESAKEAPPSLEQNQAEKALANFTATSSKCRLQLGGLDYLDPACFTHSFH

Negative control (Table 8)
Inhibition of phosphorylation of ERK1/2 in % at 7.5 µg/ml (ELISA, prolactin-treated T47D lysates): 9% | Inhibition of phosphorylation of PRLR in % at 7.5 µg/ml (ELISA, prolactin-treated T47D lysates): 2% | Inhibition of phosphorylation of STAT5 in % at 7.5 µg/ml (ELISA, prolactin-treated T47D lysates): 0%
